From publication PMC12646051

Tests used:
[1] = molecular target: β2-RF (full-length human BK β2 subunit with C-terminal mCherry-FLAG) (human) (UniProt Q9Y691); test: pull-down + SEC; plasmid weight ratio 1:0.2:1.8 (TR2)
[2] = molecular target: hSlo1EM-TS (modified human Slo1 BK α subunit with a C-terminal twin-strep tag) (human) (UniProt Q12791); test: pull-down + SEC; as a3 but plasmid weight ratio 1:0.2:1.8 (TR2)
[3] = molecular target: β2-RF (full-length human BK β2 subunit with C-terminal mCherry-FLAG) (human) (UniProt Q9Y691); test: as above
[4] = molecular target: hSlo1EM-TS (modified human Slo1 BK α subunit with a C-terminal twin-strep tag) (human) (UniProt Q12791); test: pull-down + SEC; TR1 (1:1:1); three-step affinity purification: streptactin XT (Slo1), then anti-FLAG M2 resin (β2) and anti-ρ1D4 resin (β3) one after the other, in either order; eluates, input and flow-through read by dual-colour FSEC
[5] = molecular target: β2-RF (full-length human BK β2 subunit with C-terminal mCherry-FLAG) (human) (UniProt Q9Y691); test: as above

β3-Gρ (full-length human BK β3a subunit with C-terminal eGFP-ρ1D4) (natural protein), sequence (Q9NPA1 whole entry): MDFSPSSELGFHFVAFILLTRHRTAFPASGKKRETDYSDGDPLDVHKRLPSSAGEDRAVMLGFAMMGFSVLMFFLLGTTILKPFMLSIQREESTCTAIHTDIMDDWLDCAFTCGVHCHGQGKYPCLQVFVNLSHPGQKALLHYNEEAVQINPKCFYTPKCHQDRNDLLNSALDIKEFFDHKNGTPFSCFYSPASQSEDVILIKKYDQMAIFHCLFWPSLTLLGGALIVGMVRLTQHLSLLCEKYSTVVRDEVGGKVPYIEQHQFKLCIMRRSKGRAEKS
β2-RF (full-length human BK β2 subunit with C-terminal mCherry-FLAG) (human), sequence (Q9Y691 whole entry): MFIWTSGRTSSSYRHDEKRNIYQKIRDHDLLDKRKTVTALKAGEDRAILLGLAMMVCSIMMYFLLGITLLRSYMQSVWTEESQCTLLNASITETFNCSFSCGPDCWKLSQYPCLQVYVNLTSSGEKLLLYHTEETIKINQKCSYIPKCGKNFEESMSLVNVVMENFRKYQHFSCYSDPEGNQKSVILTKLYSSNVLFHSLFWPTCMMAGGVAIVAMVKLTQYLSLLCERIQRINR
hSlo1EM-TS (modified human Slo1 BK α subunit with a C-terminal twin-strep tag) (human), sequence (Q12791 whole entry): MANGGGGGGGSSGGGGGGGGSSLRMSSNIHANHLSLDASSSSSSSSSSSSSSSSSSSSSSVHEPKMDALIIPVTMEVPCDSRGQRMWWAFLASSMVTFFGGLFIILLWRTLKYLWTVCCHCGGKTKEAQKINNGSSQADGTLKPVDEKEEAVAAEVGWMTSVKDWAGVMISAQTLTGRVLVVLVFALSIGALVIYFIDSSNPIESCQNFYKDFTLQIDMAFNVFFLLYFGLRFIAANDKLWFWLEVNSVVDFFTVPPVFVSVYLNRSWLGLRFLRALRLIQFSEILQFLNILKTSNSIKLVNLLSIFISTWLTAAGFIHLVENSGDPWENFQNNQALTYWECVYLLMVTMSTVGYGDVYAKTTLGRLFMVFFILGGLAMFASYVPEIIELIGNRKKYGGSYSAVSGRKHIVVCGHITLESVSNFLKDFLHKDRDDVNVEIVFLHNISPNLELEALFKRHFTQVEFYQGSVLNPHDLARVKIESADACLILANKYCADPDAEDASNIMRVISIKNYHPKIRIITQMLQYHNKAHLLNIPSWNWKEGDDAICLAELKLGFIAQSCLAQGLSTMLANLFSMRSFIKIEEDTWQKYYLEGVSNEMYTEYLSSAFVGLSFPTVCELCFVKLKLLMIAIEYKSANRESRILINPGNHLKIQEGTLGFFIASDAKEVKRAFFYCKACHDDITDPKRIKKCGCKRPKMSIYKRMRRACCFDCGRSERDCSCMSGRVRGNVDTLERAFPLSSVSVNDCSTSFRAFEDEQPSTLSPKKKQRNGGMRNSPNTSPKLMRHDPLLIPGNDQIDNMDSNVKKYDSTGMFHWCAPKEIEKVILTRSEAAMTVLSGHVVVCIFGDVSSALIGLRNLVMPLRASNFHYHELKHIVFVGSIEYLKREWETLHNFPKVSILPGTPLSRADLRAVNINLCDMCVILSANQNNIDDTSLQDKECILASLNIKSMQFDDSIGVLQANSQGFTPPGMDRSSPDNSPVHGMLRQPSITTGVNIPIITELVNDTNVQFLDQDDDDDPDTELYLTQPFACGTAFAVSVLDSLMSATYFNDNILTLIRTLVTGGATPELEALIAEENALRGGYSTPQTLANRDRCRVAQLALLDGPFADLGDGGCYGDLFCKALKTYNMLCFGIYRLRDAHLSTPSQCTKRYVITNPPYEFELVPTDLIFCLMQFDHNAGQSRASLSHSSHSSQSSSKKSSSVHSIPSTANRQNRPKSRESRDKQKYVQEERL

molar ratio of β2-RF to β3-Gρ in the triply purified complex [1]: 0.89 mol/mol | stoichiometry N (β3 per 4 Slo1) [2]: 2.1 | percent of total Slo1–β2 complexes that are ternary (hold β3 too) [3]: 58% | stoichiometry N (β3 per 4 Slo1) [4]: 1.2 | molar ratio of β2-RF to β3-Gρ in the triply purified complex [5]: 2.33 mol/mol | percent of total Slo1–β2 complexes that are ternary (hold β3 too) [5]: 14%
Substance: β3-Gρ (full-length human BK β3a subunit with C-terminal eGFP-ρ1D4) (natural protein)
